Test results reported in publication PMC7422833.

Key:
Assay in all cases: SEC; 200 uL of purified protein on a Superdex 200 10/30 column in TBS with 5 mM EDTA, pH 7.4, 0.3 mL/min; elution at 280 nm compared with molecular weight standards (12.4 to 443 kDa) and with refolded reference preparations
[1] = molecular target: recombinant fragment of human SP-A (rfhSP-A) expressed and isolated as a soluble protein using NT* (human)
[2] = molecular target: recombinant fragment of human SP-D (rfhSP-D) expressed and isolated as a soluble protein using NT* (human)
[3] = molecular target: rfhSP-A refolded using the previous refolding protocol using NTwt (human)
[4] = molecular target: rfhSP-D expressed and purified without an expression tag using the standard rfhSP-D purification protocol (human)

Q: With “recombinant fragment of human SP-A (rfhSP-A) expressed and isolated as a soluble protein using NT* (domain or fragment)” as the substance, how does the percent of the protein eluting at the volume of the trimer [1] read?
A: 24%

Q: What about the stoichiometry N [1] of the same substance?
A: 3

Q: For “recombinant fragment of human SP-D (rfhSP-D) expressed and isolated as a soluble protein using NT* (domain or fragment)”, which percent of the protein eluting at the volume of the trimer [2] is on record?
A: 88.5%

Q: What about the stoichiometry N [2] of the same substance?
A: 3

Q: Which stoichiometry N [3] does the source give for “rfhSP-A refolded using the previous refolding protocol using NTwt (domain or fragment)” here?
A: 3

Q: “rfhSP-D expressed and purified without an expression tag using the standard rfhSP-D purification protocol (domain or fragment)” was tested. Which stoichiometry N [4] did it give?
A: 3
